The target of data set [1] is T1, NEIL2 (rNEIL2) (UniProt Q969S2 1-332).
T1 sequence: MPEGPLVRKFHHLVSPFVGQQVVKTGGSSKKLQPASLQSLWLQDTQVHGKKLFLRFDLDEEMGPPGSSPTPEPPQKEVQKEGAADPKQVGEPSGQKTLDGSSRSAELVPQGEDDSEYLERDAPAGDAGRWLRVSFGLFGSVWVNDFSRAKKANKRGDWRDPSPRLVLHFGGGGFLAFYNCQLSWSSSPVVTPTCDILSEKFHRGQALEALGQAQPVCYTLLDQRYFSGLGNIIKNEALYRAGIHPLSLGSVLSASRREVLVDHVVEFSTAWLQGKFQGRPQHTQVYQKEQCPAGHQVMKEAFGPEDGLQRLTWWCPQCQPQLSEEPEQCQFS
Briefly: EMSA; 1 nM RNA, compact band at 75 nM NEIL2; Kd not measurable (aggregates). The settings on record: protein: recombinant; tags: C-terminal 6xHis; chain copies: 12; label: 32P end label; folded; partly aggregates. (In general: Mobility shift assays separate free from complexed probe on a gel.)

Data set [2] deals with T1, NEIL2 (rNEIL2). Nature of the data set: EMSA; 1 nM RNA, no yeast tRNA; Hill 2.428. Particulars: protein: recombinant; tags: C-terminal 6xHis; label: 32P end label.
Data set [3] has as its target T1, NEIL2 (rNEIL2). Briefly: EMSA. Particulars: protein: recombinant; tags: C-terminal 6xHis; chain copies: 12; label: 32P end label; natively folded, minor misfolded band.

What is called Kd is the constant that tells how readily two partners part at equilibrium.

B1: CoV-2 3'-UTR RNA (full length, 200 nt) (structured_RNA)
RNA: CAAUCUUUAAUCAGUGUGUAACAUUAGGGAGGACUUGAAAGAGCCACCACAUUUUCACCGAGGCCACGCGGAGUACGAUCGAGUGUACAGUGAACAAUGCUAGGGAGAGCUGCCUAUAUGGAAGAGCCCUAAUGUGUAAAAUUAAUUUUAGUAGUGCUAUCCCCAUGUGAUUUUAAUAGCUUCUUAGGAGAAUGACAAAA
For B1, the binding result in the data set with NEIL2 (rNEIL2) [1] is given as “binds”.
Consider UCCCCAUGUGAUUUUAAUAGCUUCUUAGGAGAAUGACA (mixed, DNA bases may be present) [CoV-2 3'-UTR ZnF-site (38-mer)], for which the Kd in the data set with NEIL2 (rNEIL2) [2] is 77.2 nM.

B2: CoV-2 5'-UTR RNA (full length, 297 nt) (structured_RNA)
RNA: AUUAAAGGUUUAUACCUUCCCAGGUAACAAACCAACCAACUUUCGAUCUCUUGUAGAUCUGUUCUCUAAACGAACUUUAAAAUCUGUGUGGCUGUCACUCGGCUGCAUGCUUAGUGCACUCACGCAGUAUAAUUAAUAACUAAUUACUGUCGUUGACAGGACACGAGUAACUCGUCUAUCUUCUGCAGGCUGCUUACGGUUUCGUCCGUGUUGCAGCCGAUCAUCAGCACAUCUAGGUUUUGUCCGGGUGUGACCGAAAGGUAAGAUGGAGAGCCUUGUCCCUGGUUUCAACGAGAA
Consider B2, for which the Kd with NEIL2 (rNEIL2) [3] is 44.2 nM.

(Values after paper PMC10710473, “The DNA glycosylase NEIL2 is protective during SARS-CoV-2 infection”.)
